Results from patent publication US10428140B2, “Anti-EphA4 antibody” (EISAI R&D MANAGEMENT CO., LTD., priority 2015, dated 2019).

T1: human EphA3 (Homo sapiens, UniProt P29320)
T1 construct: a protein of the extracellular region of each human Eph receptor fused with the SEAP protein and the His tag; made in house; host or cells: Expi293F cells (culture supernatant)
T1 sequence (P29320 21-541 limits assumed): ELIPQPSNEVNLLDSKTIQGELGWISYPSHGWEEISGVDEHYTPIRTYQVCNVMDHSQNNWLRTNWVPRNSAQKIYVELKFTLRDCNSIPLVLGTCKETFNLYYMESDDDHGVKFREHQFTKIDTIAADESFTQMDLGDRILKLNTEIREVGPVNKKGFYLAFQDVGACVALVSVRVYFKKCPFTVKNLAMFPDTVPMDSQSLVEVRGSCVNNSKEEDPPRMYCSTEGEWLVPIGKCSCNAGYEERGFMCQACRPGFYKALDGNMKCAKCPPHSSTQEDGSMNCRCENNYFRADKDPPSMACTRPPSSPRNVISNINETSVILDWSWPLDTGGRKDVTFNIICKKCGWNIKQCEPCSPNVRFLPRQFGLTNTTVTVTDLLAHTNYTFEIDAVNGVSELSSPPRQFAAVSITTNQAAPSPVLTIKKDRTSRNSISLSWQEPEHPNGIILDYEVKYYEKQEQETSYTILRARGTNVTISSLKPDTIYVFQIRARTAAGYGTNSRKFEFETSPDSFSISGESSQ

T2: human EphA6 (Homo sapiens, UniProt Q9UF33)
T2 construct: a protein of the extracellular region of each human Eph receptor fused with the SEAP protein and the His tag; made in house; host or cells: Expi293F cells (culture supernatant)
T2 sequence (Q9UF33 23-550 limits assumed): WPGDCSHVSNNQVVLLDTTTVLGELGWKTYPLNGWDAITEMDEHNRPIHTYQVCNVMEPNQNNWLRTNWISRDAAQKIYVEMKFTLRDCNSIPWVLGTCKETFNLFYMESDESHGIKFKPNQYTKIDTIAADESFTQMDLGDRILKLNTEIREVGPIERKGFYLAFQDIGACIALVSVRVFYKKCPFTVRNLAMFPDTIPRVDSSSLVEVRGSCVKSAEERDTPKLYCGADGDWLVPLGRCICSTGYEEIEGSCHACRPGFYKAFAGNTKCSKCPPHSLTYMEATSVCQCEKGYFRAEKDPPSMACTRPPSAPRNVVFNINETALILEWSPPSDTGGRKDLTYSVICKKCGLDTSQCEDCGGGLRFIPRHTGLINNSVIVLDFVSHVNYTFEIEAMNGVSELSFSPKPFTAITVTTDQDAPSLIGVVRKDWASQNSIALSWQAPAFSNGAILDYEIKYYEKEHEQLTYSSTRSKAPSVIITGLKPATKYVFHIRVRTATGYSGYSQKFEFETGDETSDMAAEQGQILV

T3: human EphA7 (Homo sapiens, UniProt Q15375)
T3 construct: a protein of the extracellular region of each human Eph receptor fused with the SEAP protein and the His tag; made in house; host or cells: Expi293F cells (culture supernatant)
T3 sequence (Q15375 28-555 limits assumed): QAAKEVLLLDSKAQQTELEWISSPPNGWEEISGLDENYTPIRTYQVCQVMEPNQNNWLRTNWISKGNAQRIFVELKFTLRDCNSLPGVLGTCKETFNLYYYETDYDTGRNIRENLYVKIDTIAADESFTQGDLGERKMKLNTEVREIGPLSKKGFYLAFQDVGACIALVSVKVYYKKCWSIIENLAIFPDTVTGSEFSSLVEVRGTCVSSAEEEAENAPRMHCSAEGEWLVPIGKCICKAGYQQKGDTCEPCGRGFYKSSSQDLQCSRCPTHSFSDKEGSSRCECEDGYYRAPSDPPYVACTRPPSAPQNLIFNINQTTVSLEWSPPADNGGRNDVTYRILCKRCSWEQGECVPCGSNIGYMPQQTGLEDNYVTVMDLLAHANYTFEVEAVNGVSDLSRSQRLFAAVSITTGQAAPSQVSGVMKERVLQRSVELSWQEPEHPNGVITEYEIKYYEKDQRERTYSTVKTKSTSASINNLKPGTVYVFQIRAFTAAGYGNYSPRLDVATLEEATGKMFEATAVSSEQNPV


Tests used:
Experiment in all cases: Selectivity ELISA of humanized antibodies for human Eph receptor
Type in all cases: binding
Conditions in all cases: coated protein 1 nM
[1] = biological target: T1, human EphA3
Procedure, shortened: (§1)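 Human Eph ECD-SEAP-His fusions, harvested after 5 days of Expi293F expression, are captured on anti-His-coated wells (1 nM final). Bound humanized antibody is detected with HRP anti-IgG and TMB at 450 nm.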

[2] = biological target: T2, human EphA6
Procedure, shortened: as §1

[3] = biological target: T3, human EphA7
Procedure, shortened: as §1

| Molecule | hEphA3-SEAP-: absorbance at 450 nm, percentage with respect to hEphA4-SEAP-His as 100% [1] [%] | hEphA6-SEAP-: absorbance at 450 nm, percentage with respect to hEphA4-SEAP-His as 100% [2] [%] | hEphA7-SEAP-: absorbance at 450 nm, percentage with respect to hEphA4-SEAP-His as 100% [3] [%] |
| --- | --- | --- | --- |
| 139 (antibody, synthetic humanized antibody heavy chain variable region sequence; synthetic humanized antibody light chain variable region sequence; synthetic antibody constant region sequence) VH: QVQLVQSGSELKKPGASVKVSCKASGYTFTDYSMHWVRQAPGQGLEWMGWINTETGEPTYAQGFTGRFVFSLDTSVSTAYLQISSLKAEDTAVYYCARIPLYYYGSRYWYFDVWGQGTTVTVSS VL: DIQMTQSPSSLSASVGDRVTITCRASENIYRNLAWYQQKPGKAPKLLVYAATNLADGVPSRFSGSGSGTDYTLTISSLQPEDFATYYCQHFWGTPWTFGQGTKVEIK ASTKGPSVFPLAPSSRSTSESTAALGCLVKDYFPEPVTVSWNSGALTSGVHTFPAVLQSSGLYSLSSVVTVPSSNFGTQTYTCNVDHKPSNTKVDKTVERKSCVECPPCPAPPAAAPSVFLFPPKPKDTLMISRTPEVTCVVVDVSHEDPEVQFNWYVDGVEVHNAKTKPREEQFNSTFRVVSVLTVVHQDWLNGKEYKCKVSNKGLPAPIEKTISKTKGQPREPQVYTLPPSREEMTKNQVSLTCLVKGFYPSDIAVEWESNGQPENNYKTTPPMLDSDGSFFLYSKLTVDKSRWQQGNVFSCSVMHEALHNHYTQKSLSLSPG | 5.9 | 10.0 | 5.5 |
| 138 (antibody, V domains shown, synthetic humanized antibody heavy chain variable region sequence; synthetic humanized antibody light chain variable region sequence) VH: QIQLVQSGSELKKPGASVKVSCKASGYTFTDYSMHWVRQAPGQGLKWMGWINTETGEPTYAQGFTGRFVFSLDTSVSTAYLQISSLKAEDTAVYYCARIPLYYYGSRYWYFDVWGQGTTVTVSS VL: DIQMTQSPSSLSASVGDRVTITCRASENIYRNLAWYQQKPGKAPKLLVYAATNLADGVPSRFSGSGSGTDYTLTISSLQPEDFATYYCQHFWGTPWTFGQGTKVEIK | 4.9 | 10.2 | 4.9 |
| 152 (antibody, V domains shown, synthetic humanized antibody heavy chain variable region sequence; synthetic humanized antibody light chain variable region sequence) VH: QVQLVQSGSELKKPGASVKVSCKASGYTFTDYSMHWVRQAPGQGLEWMGWINTETGEPTYAQGFTGRFVFSLDTSVSTAYLQISSLKAEDTAVYYCARIPLYYYGSRYWYFDVWGQGTTVTVSS VL: DIQMTQSPSSLSASVGDRVTITCRASENIYRNLAWYQQKPGKAPKLLLYAATNLADGVPSRFSGSGSGTDYTLTISSLQSEDFATYYCQHFWGTPWTFGQGTKVEIK | 5.8 | 8.3 | 5.7 |
| 142 (antibody, V domains shown, synthetic humanized antibody heavy chain variable region sequence; synthetic humanized antibody light chain variable region sequence) VH: QVQLVQSGSELKKPGASVKVSCKASGYTFTDYSMHWVRQAPGQGLKWMGWINTETGEPTYADDFKGRFVFSLDTSVSTAYLQISSLKAEDTAVYYCARIPLYYYGSRYWYFDVWGQGTTVTVSS VL: DIQMTQSPSSLSASVGDRVTITCRASENIYRNLAWYQQKPGKAPKLLVYAATNLADGVPSRFSGSGSGTDYTLTISSLQPEDFATYYCQHFWGTPWTFGQGTKVEIK | 5.5 | 9.7 | 5.5 |
| 153 (antibody, V domains shown, synthetic humanized antibody heavy chain variable region sequence; synthetic humanized antibody light chain variable region sequence) VH: QVQLVQSGSELKKPGASVKVSCKASGYTFTDYSMHWVRQAPGQGLKWMGWINTETGEPTYAQGFTGRFVFSLDTSVSTAYLQISSLKAEDTAVYYCARIPLYYYGSRYWYFDVWGQGTTVTVSS VL: DIQMTQSPSSLSASVGDRVTITCRASENIYRNLAWYQQKPGKAPKLLLYAATNLADGVPSRFSGSGSGTDYTLTISSLQSEDFATYYCQHFWGTPWTFGQGTKVEIK | 6.1 | 8.7 | 6.2 |
| 140 (antibody, V domains shown, synthetic humanized antibody heavy chain variable region sequence; synthetic humanized antibody light chain variable region sequence) VH: QVQLVQSGSELKKPGASVKVSCKASGYTFTDYSMHWVRQAPGQGLKWMGWINTETGEPTYAQGFTGRFVFSLDTSVSTAYLQISSLKAEDTAVYYCARIPLYYYGSRYWYFDVWGQGTTVTVSS VL: DIQMTQSPSSLSASVGDRVTITCRASENIYRNLAWYQQKPGKAPKLLVYAATNLADGVPSRFSGSGSGTDYTLTISSLQPEDFATYYCQHFWGTPWTFGQGTKVEIK | 5.5 | 10.8 | 5.2 |
| 143 (antibody, V domains shown, synthetic humanized antibody heavy chain variable region sequence; synthetic humanized antibody light chain variable region sequence) VH: QIQLVQSGSELKKPGASVKVSCKASGYTFTDYSMHWVRQAPGQGLKWMGWINTETGEPTYADDFKGRFVFSLDTSVSTAYLQISSLKAEDTAVYYCARIPLYYYGSRYWYFDVWGQGTTVTVSS VL: DIQMTQSPSSLSASVGDRVTITCRASENIYRNLAWYQQKPGKAPKLLVYAATNLADGVPSRFSGSGSGTDYTLTISSLQPEDFATYYCQHFWGTPWTFGQGTKVEIK | 5.6 | 9.9 | 5.8 |
| 141 (antibody, V domains shown, synthetic humanized antibody heavy chain variable region sequence; synthetic humanized antibody light chain variable region sequence) VH: QVQLVQSGSELKKPGASVKVSCKASGYTFTDYSMHWVRQAPGQGLEWMGWINTETGEPTYADDFKGRFVFSLDTSVSTAYLQISSLKAEDTAVYYCARIPLYYYGSRYWYFDVWGQGTTVTVSS VL: DIQMTQSPSSLSASVGDRVTITCRASENIYRNLAWYQQKPGKAPKLLVYAATNLADGVPSRFSGSGSGTDYTLTISSLQPEDFATYYCQHFWGTPWTFGQGTKVEIK | 5.3 | 9.0 | 5.3 |
